Columns and labels:
FcγRI (human) = FcγRI (human) (UniProt P12314); experiment: BIACore SPR
FcγRIa (human) = FcγRIa (human) (UniProt P12314); experiment: BIACore SPR
FcγRIa (human), sequence (P12314 16-292): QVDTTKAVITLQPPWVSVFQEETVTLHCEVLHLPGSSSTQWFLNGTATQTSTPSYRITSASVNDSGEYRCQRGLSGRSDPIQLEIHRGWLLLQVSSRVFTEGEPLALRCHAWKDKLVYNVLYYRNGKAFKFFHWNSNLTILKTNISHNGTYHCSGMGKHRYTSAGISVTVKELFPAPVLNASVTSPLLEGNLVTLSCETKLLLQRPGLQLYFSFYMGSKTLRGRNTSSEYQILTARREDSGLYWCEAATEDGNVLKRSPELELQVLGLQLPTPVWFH

FcγRI (human), sequence (P12314 16-292): as above

| Kd (FcγRI (human)) [nM] | Kd (FcγRIa (human)) [nM] | Substance |
| --- | --- | --- |
| 382 |  | Aglycosylated wild type Trastuzumab |
|  | 382 | Aglycosylated wild type trastuzumab |

Source: patent publication US20100330076A1
